The test addresses MBP-DIC1 (UniProt O14576 1-645). Put plainly: pull-down.

Consider one molecule from paper doi:10.1101/2025.04.08.647777 (bioRxiv, 2025).

Sequence of MBP-DIC1 (O14576 whole entry): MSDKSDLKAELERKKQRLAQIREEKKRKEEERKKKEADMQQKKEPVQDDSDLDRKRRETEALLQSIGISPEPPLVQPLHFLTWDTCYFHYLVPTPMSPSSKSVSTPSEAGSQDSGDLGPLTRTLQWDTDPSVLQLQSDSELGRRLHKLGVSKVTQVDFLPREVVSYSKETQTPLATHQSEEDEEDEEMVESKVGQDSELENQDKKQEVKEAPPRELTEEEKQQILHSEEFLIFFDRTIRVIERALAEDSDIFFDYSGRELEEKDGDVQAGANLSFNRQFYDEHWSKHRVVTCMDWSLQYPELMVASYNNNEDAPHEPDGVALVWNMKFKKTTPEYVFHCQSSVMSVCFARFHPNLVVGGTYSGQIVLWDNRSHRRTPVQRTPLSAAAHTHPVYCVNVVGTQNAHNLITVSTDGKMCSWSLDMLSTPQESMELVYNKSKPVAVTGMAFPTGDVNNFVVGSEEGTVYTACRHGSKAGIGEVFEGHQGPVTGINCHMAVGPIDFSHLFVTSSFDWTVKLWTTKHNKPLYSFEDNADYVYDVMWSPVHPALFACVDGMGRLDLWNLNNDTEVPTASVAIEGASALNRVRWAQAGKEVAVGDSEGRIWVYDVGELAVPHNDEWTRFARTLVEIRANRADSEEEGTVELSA

B1: GST-CSN7A (natural protein)
chain: MSAEVKVTGQNQEQFLLLAKSAKGAALATLIHQVLEAPGVYVFGELLDMPNVRELAESDFASTFRLLTVFAYGTYADYLAEARNLPPLTEAQKNKLRHLSVVTLAAKVKCIPYAVLLEALALRNVRQLEDLVIEAVYADVLRGSLDQRNQRLEVDYSIGRDIQRQDLSAIARTLQEWCVGCEVVLSGIEEQVSRANQHKEQQLGLKQQIESEVANLKKTIKVTTAAAAAATSQDPEQHLTELREPAPGTNQRQPSKKASKGKGLRGSAKIWSKSN
In the case of B1, the binding result is reported as “binds”.
